Measurements published in the supplement of paper PMC6757056.
± gives the standard deviation of the averaged measurements.

B1: library; a variant is named by its letters at N, in order (parent)
chain: GCUGUCACCGGUGCUUGGUACGUUAUAUUCAGCCGGUCUGAUGAGUCUNNNNNNAGACGAAACAGC

Columns and labels:
[1] = variants of: B1; test: FACS-Seq fitted mean relative fluorescence mCherry/BFP without ligand (log10 relative fluorescence); HEK293T overexpressing SLC46A1; higher = higher reporter protein expression; details: without (6R,S)-folinic acid; ligand present: no
In short: (§1)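 Genomic DNA from 6 mCherry/BFP sort bins was PCR-amplified, barcoded and sequenced on MiSeq. The sorted cells were enriched HEK293T libraries, lentivirally transduced with a ribozyme-switch mCherry reporter and an EF1α-BFP marker, incubated with or without ligand for 48 h. Fluorescence derives from a normal fit to the bin counts. The fit was on log10(mCherry/BFP), and means were scaled to five spiked-in control ribozymes.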

[2] = variants of: B1; test: normalized RNA/DNA level without ligand (relative to sTRSVctl = 100) (log10 (% of sTRSVctl)); HEK293T overexpressing SLC46A1; higher = less ribozyme self-cleavage, higher mRNA level; details: without (6R,S)-folinic acid; ligand present: no
Protocol: (§2)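 Hammerhead (sTRSV) ribozyme switch libraries with a ligand aptamer grafted on stem I and a randomized N4-6 loop II, cloned into the 3' UTR of mCherry and transiently transfected into HEK293T cells; RNA-Seq 72 h post transfection with ligand added 1 h before transfection; RNA read count / plasmid DNA read count normalized to the non-cleaving sTRSVctl (x100), log10; sequences with >100 DNA reads. FACS-Seq: lentiviral library sorted into 6 bins after 48 h ligand, log-normal fit mean of mCherry/BFP scaled to controls. Printed sequences are partial switch sequences.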

[3] = variants of: B1; test: FACS-Seq fitted mean relative fluorescence mCherry/BFP with ligand (log10 relative fluorescence); HEK293T overexpressing SLC46A1; ligand concentration (+) FACS-Seq: 6 mM; higher = higher reporter protein expression; details: with (6R,S)-folinic acid; ligand present: yes
In short: as §1

[4] = variants of: B1; test: normalized RNA/DNA level with ligand (relative to sTRSVctl = 100) (log10 (% of sTRSVctl)); HEK293T overexpressing SLC46A1; ligand concentration (+) RNA-Seq: 6 mM; higher = less ribozyme self-cleavage, higher mRNA level; details: with (6R,S)-folinic acid; ligand present: yes
Protocol: as §2

Variant	FACS-Seq fitted mean (log10) [1]	normalized RNA/DNA level without ligand (log10) [2]	FACS-Seq fitted mean (log10) [3]	normalized RNA/DNA level with ligand (log10) [4]
UAUUAA	-0.696 ± 0.074	1.946 ± 0.0091	-0.811 ± 0.25	1.98 ± 0.037
UAUUAC	0.106 ± 0.011	1.984 ± 0.0099	0.38 ± 0.24	2 ± 0.035
CCAAAA	0.502 ± 0.074	1.971 ± 0.0043	0.496 ± 0.19	1.96 ± 0.022
GAGUUG	0.407 ± 0.032	1.968 ± 0.0093	0.387 ± 0.15	2.03 ± 0.039
CAUGUU	-0.0794 ± 0.016	2.027 ± 0.017	-0.27 ± 0.064	2.04 ± 0.029
CAUGUG	0.241 ± 0.086	2 ± 0.025	0.351 ± 0.27	1.992 ± 0.011
UCAAAA	0.0137 ± 0.17	1.944 ± 0.012	0.0601 ± 0.04	1.99 ± 0.046
UCAAAC	0.446 ± 0.11	2.01 ± 0.0051	0.621 ± 0.079	2.01 ± 0.056
UAUGGA	0.416 ± 0.029	1.828 ± 0.012	0.472 ± 0.013	1.98 ± 0.021
UAUGGC	-0.0353 ± 0.039	1.948 ± 0.014	-0.149 ± 0.14	2 ± 0.032
UAUGGG	0.1983 ± 0.0014	1.54 ± 0.028	0.816 ± 0.12	1.91 ± 0.045
UAUGUG	0.257 ± 0.25	1.65 ± 0.024	0.638 ± 0.018	1.944 ± 0.019
GAUUGA	0.422 ± 0.12	1.999 ± 0.019	0.519 ± 0.3	2.02 ± 0.048
GAUUGU	0.143 ± 0.011	1.995 ± 0.0038	0.365 ± 0.11	2.024 ± 0.0059
AAUCUU	0.524 ± 0.12	2.002 ± 0.013	0.276 ± 0.024	2.013 ± 0.017
AAUCUA	0.267 ± 0.13	1.99 ± 0.013	0.439 ± 0.27	2.014 ± 0.013
UAUUUU	0.372 ± 0.078	2.006 ± 0.0046	0.24 ± 0.13	2.02 ± 0.058
UAUUUC	0.248 ± 0.026	2.029 ± 0.0031	0.208 ± 0.2	2.01 ± 0.054
